B1: 354 (protein, listed as Chthonomonas calidirosea)
chain: MGKTKRSLKVNRRDFFTLGAATLLAAISLPDGDLLAFAQKEREKDLVYGIRRERFEWAQKKAAALVAQMTREEKISQVGNNVPAIPRLGLPAYNYYSGEALHGLVRGGPVTSFPLPLALANTWNPELQYQVYTAVSDEARAYHNRDGVGLAYYSPQTINTAKDPRWGRIEETLGEDPHLMSLMAVQAVRGMQGDDPNYLKTVACAKHYIANETDNDRTAVSETVDPRSFWEYYVRPFYACVVDGKVFSVMGAYNAVNGIPCCADKNLLTGILRERWGFQGYVTSDCDAIYNIYDPHHYATSLAEACAMGIKAGCDLDCGDTYPRHLGEAFEQHLLEEADLDKAVTRLLTARFLFGDLDPEPRCPYNKIPFSVVDSPKHRALALEAARQSIVLLKNDGILPLDKTALKSVAVIGPTAAIAHLGGYSGAPFLRVSPLSGIAQALGIGIHFDEVYAYQAVRLEGGPQLESSVEQGGTDIGFIKNGSWVEFPATDFAGKNEIEVRVASDTQGGTIEIHLDRLNGPLLCTLQVPHTGGWQNWISLKAPINGVIGKHKLFFLFKGGDGYLLNVAWYRLNPPSPPETHNPNGIALTYQQGCTITGARNDTMFQKAVEAARQADVAIVVAGVNQEVDAEGHDRDDIRLTGAQHELIQAVYQANPKTILVLSTNAPVAVTWEQENLPAIVAAIFAGQAQGTAIADVLFGNYNPSGKLATTWYKSVEDLPDFHDFDITKRTYMYFEGEPLYPFGYGLSYTTFQIGNIQVSHPRLTSGGSITVSVDVTNIGKRAGTEVVQLYVRPPKSPVKRPNKQLVDFKRVELRPGETKRVELSLPYESPALWYWDVAQSKFVLQPGTVTLMVGNSSAHIAHTTTIELV
B2: 339 (protein, listed as Koribacter versatilis)
chain: MKISRVFLATTLALSMFGSAQRPDPRAELMKKPWMDKNKSADERAELVLKEMTVDEKINLIHGQGMEEMAEFGIPMPNKALGNGGAGFVLGVERLGIPLIQMSDAAYGVRSSAKNGRYSTALPSNLGSAASWDPQAACEYGALIGRELRAQGYNMTLGGGVNITREPRNGRTFEYMGEDPILAGTLVGNRIKCEQAQHVIGDTKHYAVNDQESGRTEVDVVISKRAMRETDLLAFEIGIEIGQPGAVMCSYNLVNGTYACQNKYLLTDVLKKDWNFKGFVVSDWGATHSTIESSAAGLDNEQPFGIFYSDKFKAGLDSGKIPMSELDDHVRRILRTEFASGIVDNPVVKAVVDVEAGLETARKIEEGSIVLLKNGNNILPLDKDSIKSVAIIGEKADFGMISGGGSAQVDPPGPSHEWQAHVWFPTSPLKAVQAKLPNAKVDWRSGSDKSKAAALAKQSDIAIVFVHQWISEGMDLPDLTLPFGQDELIERVAAANPRTIVVLESGTAVTMPWLDKVSGVVEAWYGGSKGADAVANILFGDVNPSGKLPMTFPRSVEDVPHPKLAVPPPNPNPMETYMHPELAKATVTATYDEGVKVGYKWYDAEKKPVLFPFGFGLSYTTYQYSGLKVSSGKTTTVSFTVKNTGKRGGDEIAQVYASLPAEAQEPPKRLVGFTKVHLNAGESKEVSVTVPAKYLSVFDEASNGWKLVPGSYSFMVGGSSQDLPQKQSATF

What was measured:
Type in all cases: biochemical, Quillaja saponaria
[1] = Experiment 4-4: screening of glucosidases for deglycosylation of QS-18 in crude bark extract (1 in 20 dilution) to QS-21; details: CBE 1 in 20 dilution, pH 6, 25 degC, 18 hours; % conversion of Middle Peak by UV HPLC
Outline: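 Clarified glucosidase lysates were incubated with pH 6 crude bark extract (1 in 20) in potassium phosphate buffer pH 6 for 18 h at 25 °C with shaking, then quenched with MeCN. UV HPLC with MS/MS-supported peak identity; activity is % conversion of the extract's Middle Peak (QS-18 family) toward the QS-21 peak.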

[2] = Experiment 4-2: screening of glucosidases for deglycosylation with purified QS-18 (1 mg/ml) at pH 6 and 30 deg C; details: pH 6, 30 degC, 18 hrs, clarified lysate, LCMS/MS
Outline: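 Enzyme activity derived from LC-MS/MS analysis after MeCN quench. Substrate QS-18 (1 mg/ml final) was exposed overnight (18 h, 30 °C, pH 6 phosphate buffer) to clarified lysates containing candidate glucosidases.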

[3] = Experiment 4-1: screening of glucosidases for deglycosylation with purified QS-18 (0.04 mg/ml) at pH 7.5 and room temperature; details: pH 7.5, room temperature, 20 h, clarified E. coli lysate, QS-18 2150 to QS-21 1988 by LCMS/MS
Outline: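 Deglycosylation measured by LC-MS/MS as % conversion after 20 h room-temperature incubation of QS-18 phenyl fraction (0.04 mg/ml final) with polymyxin B/lysozyme lysates, pH 7.5 phosphate, of E. coli BL21(DE3) expressing each enzyme; MeCN quench. Positives exceeded negative control by >3 S.D.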

Molecule | Expt 4-4 % conv [1] | Expt 4-2 % conv [2] | Expt 4-1 % conv [3]
B1 | <3% | 0.5% | 1.6%
B2 | <3% | 0.5% | 1.4%
